Experiments:
[1] = target: T1, Recombinant Human DLL4 (R&D Systems Cat#1506-D4/CF) (human, UniProt Q9NR61 27-524); assay: ECL 96-well plate assay; 0.02 uM Fab, plate coated with 30 ug/mL DLL4
T1 construct: Bought recombinant protein; also called delta-like protein 4; rHuman DLL4

[2] = target: T1, Recombinant Human DLL4 (R&D Systems …); assay: ECL 96-well plate assay; 0.004 uM Fab, plate coated with 15 ug/mL DLL4
[3] = target: T2, rHuman ErbB2/Fc Chimera, CF (R&D Systems Cat#1129-ER) (human, UniProt P04626 23-652); assay: ECL multispot (MSD) assay, antigen spotted on plate, 10 nM Fab;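 note: bound Fab detected with a TAG-labelled detection antibody (1 h, 20 °C), electrochemiluminescence read and compared with each well's blank, signal/blank of 4 or above scored as hit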
T2 construct: Bought recombinant Fc chimera; also called human epidermal growth factor 2 receptor; Fc part of the bought chimera not given

[4] = target: T3, rHuman EGF R/Fc Chimera, CF (R&D Systems Cat#344-ER) (human, UniProt P00533 25-645); assay: as above
T3 construct: Bought recombinant Fc chimera; also called epidermal growth factor receptor; Fc part of the bought chimera not given

[5] = target: T4, rHuman HGF R/c-MET/Fc Chimera, CF (R&D Systems Cat#358-MT/CF) (human, UniProt P08581 25-932); assay: as above
T4 construct: Bought recombinant Fc chimera; also called HGF R/Fc; hepatocyte growth factor receptor; Fc part of the bought chimera not given

[6] = target: T5, rHuman IGF-1 sR, CF (R&D Systems Cat#391-GR) (human, UniProt P08069 31-932); assay: as above
T5 construct: Bought soluble receptor; also called insulin-like growth factor-1 soluble receptor

[7] = target: T6, rHuman P-Cadherin/Fc Chimera, CF (R&D Systems Cat#861-PC) (human, UniProt P22223 108-654); assay: as above
T6 construct: Bought recombinant Fc chimera; Fc part of the bought chimera not given

[8] = target: T7, Recombinant Human DLL4 (R&D Systems Cat#1506-D4/CF) (human, UniProt Q9NR61 27-524); assay: as above
T7 construct: Bought recombinant protein; also called delta-like protein 4; rHuman DLL4

[9] = target: T8, Recombinant Human DLL4 (R&D Systems Cat#1506-D4/CF) (human, UniProt Q9NR61 27-524); assay: ECL (MSD) multispot binding assay, DLL4 immobilised, Fab in solution
T8 construct: Bought protein (R&D Systems Cat#1506-D4/CF), immobilised on the MSD plate; also called delta-like protein 4; rHuman DLL4

T4 sequence (P08581 25-932, change not shown): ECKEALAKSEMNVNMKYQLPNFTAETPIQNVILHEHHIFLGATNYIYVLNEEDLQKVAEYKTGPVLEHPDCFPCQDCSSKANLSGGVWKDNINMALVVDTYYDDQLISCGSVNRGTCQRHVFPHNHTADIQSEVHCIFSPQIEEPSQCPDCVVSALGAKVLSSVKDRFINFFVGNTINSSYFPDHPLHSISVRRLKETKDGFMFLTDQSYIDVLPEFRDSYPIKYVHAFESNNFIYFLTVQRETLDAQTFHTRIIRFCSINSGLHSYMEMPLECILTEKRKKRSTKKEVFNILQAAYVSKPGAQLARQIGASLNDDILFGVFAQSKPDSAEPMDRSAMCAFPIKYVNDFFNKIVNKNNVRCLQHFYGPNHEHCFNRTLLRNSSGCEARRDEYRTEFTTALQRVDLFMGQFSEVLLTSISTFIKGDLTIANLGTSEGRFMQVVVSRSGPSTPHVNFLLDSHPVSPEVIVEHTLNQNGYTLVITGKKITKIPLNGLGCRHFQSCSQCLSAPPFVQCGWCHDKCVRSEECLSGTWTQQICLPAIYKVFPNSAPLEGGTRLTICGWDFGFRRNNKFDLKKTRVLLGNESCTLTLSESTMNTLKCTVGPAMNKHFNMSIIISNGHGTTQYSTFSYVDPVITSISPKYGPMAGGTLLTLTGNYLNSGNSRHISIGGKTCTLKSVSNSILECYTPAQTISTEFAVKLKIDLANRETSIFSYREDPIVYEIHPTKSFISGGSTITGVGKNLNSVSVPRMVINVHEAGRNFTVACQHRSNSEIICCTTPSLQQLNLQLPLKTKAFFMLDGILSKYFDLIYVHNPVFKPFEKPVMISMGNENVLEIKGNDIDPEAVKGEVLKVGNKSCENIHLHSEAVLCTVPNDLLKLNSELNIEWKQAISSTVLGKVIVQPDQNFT

Row | Signal/Noise [1] | Signal/Noise [2] | Binder | other results
1 | 0.8 | 1.1 | Fab VH1-46_IGHD6-6*01_IGHJ1*01 S103stop & L6_IGKJ1*01 (Fab, V domains shown, The heavy chain is therefore truncated in CDR3 and carries no CH1 or tags) VH: QVQLVQSGAEVKKPGASVKVSCKASGYTFTSYYMHWVRQAPGQGLEWMGIINPSGGSTSYAQKFQGRVTMTRDTSTSTVYMELSSLRSEDTAVYYCAREEYS VL: not shown | –
2 | 40.6 | 31.9 | Fab VH1-46_IGHD6-6*01_IGHJ1*01 S102Q & L6_IGKJ1*01 (Fab, V domains shown, Fab; heavy chain CDR3 NNK mutant of the parent; Constant parts as for the parent Fab (CH1 with His6/Flag tags, kappa CL)) VH: QVQLVQSGAEVKKPGASVKVSCKASGYTFTSYYMHWVRQAPGQGLEWMGIINPSGGSTSYAQKFQGRVTMTRDTSTSTVYMELSSLRSEDTAVYYCAREEYQSSSAEYFQHWGQGTLVTVSS VL: not shown | –
3 | – | – | Fab VH1-46_IGHD6-6*01_IGHJ1*01 S102A/S103P/S104F/H111F & L6_IGKJ1*01 (Fab, V domains shown, Fab expressed in E. coli: VH cloned into Plasmid A (CH1, His6 and Flag tags), kappa VL into Plasmid C (kappa CL); also called APFF; H:APFF & L:wt) VH: QVQLVQSGAEVKKPGASVKVSCKASGYTFTSYYMHWVRQAPGQGLEWMGIINPSGGSTSYAQKFQGRVTMTRDTSTSTVYMELSSLRSEDTAVYYCAREEYAPFSAEYFQFWGQGTLVTVSS VL: not shown | ECL signal [3]: 354; ECL signal [4]: 383; ECL signal [5]: 347; ECL signal [6]: 397; ECL signal [7]: 347; ECL signal [8]: 78400
4 | – | – | Fab VH1-46_IGHD6-6*01_IGHJ1*01 S102A/S103P/S104F/H111F (APFF) & L6_IGKJ1*01 N93S (Fab, V domains shown, Fab with CH1 plus His6/Flag tags and kappa CL from the expression plasmids; also called APFF & N93S) VH: QVQLVQSGAEVKKPGASVKVSCKASGYTFTSYYMHWVRQAPGQGLEWMGIINPSGGSTSYAQKFQGRVTMTRDTSTSTVYMELSSLRSEDTAVYYCAREEYAPFSAEYFQFWGQGTLVTVSS VL: EIVLTQSPATLSLSPGERATLSCRASQSVSSYLAWYQQKPGQAPRLLIYDASNRATGIPARFSGSGSGTDFTLTISSLEPEDFAVYYCQQRSSWPPWTFGQGTKVEIKR | ECL signal [9]: 6440
5 | 35.9 | 36.5 | Fab VH1-46_IGHD6-6*01_IGHJ1*01 S102V & L6_IGKJ1*01 (Fab, V domains shown, Fab; heavy chain CDR3 NNK mutant of the parent; Constant parts as for the parent Fab) VH: QVQLVQSGAEVKKPGASVKVSCKASGYTFTSYYMHWVRQAPGQGLEWMGIINPSGGSTSYAQKFQGRVTMTRDTSTSTVYMELSSLRSEDTAVYYCAREEYVSSSAEYFQHWGQGTLVTVSS VL: not shown | –
6 | 21.7 | 31.7 | Fab VH1-46_IGHD6-6*01_IGHJ1*01 S103H & L6_IGKJ1*01 (Fab, V domains shown, Fab; heavy chain CDR3 NNK mutant of the parent; Constant parts as for the parent Fab) VH: QVQLVQSGAEVKKPGASVKVSCKASGYTFTSYYMHWVRQAPGQGLEWMGIINPSGGSTSYAQKFQGRVTMTRDTSTSTVYMELSSLRSEDTAVYYCAREEYSHSSAEYFQHWGQGTLVTVSS VL: not shown | –
7 | 27.1 | 27.4 | Fab VH1-46_IGHD6-6*01_IGHJ1*01 S103C & L6_IGKJ1*01 (Fab, V domains shown, Fab; heavy chain CDR3 NNK mutant of the parent; Constant parts as for the parent Fab) VH: QVQLVQSGAEVKKPGASVKVSCKASGYTFTSYYMHWVRQAPGQGLEWMGIINPSGGSTSYAQKFQGRVTMTRDTSTSTVYMELSSLRSEDTAVYYCAREEYSCSSAEYFQHWGQGTLVTVSS VL: not shown | –

From patent US20120316071A1 (published 2012)
